Some targets named below: BLM642-1290 C1063N (Homo sapiens, UniProt P54132 642-1290, C1063N); BLM642-1290 WT (Homo sapiens, UniProt P54132 642-1290); BLM642-1290 C1055N (Homo sapiens, UniProt P54132 642-1290, C1055N).
Holding throughout (experiment): fluorescence anisotropy
In general terms: Polarisation of emitted light reports the rotation of a fluorescent probe.

The target of data set [1] is BLM642-1290 zinc-demetalated (WTzn-) (Homo sapiens, UniProt P54132 642-1290).
The target in data set [2] is BLM642-1290 C1055N/C1063N (Homo sapiens, UniProt P54132 642-1290, C1055N;C1063N).
Chain of BLM642-1290 C1055N/C1063N (P54132 642-1290 C1055N/C1063N): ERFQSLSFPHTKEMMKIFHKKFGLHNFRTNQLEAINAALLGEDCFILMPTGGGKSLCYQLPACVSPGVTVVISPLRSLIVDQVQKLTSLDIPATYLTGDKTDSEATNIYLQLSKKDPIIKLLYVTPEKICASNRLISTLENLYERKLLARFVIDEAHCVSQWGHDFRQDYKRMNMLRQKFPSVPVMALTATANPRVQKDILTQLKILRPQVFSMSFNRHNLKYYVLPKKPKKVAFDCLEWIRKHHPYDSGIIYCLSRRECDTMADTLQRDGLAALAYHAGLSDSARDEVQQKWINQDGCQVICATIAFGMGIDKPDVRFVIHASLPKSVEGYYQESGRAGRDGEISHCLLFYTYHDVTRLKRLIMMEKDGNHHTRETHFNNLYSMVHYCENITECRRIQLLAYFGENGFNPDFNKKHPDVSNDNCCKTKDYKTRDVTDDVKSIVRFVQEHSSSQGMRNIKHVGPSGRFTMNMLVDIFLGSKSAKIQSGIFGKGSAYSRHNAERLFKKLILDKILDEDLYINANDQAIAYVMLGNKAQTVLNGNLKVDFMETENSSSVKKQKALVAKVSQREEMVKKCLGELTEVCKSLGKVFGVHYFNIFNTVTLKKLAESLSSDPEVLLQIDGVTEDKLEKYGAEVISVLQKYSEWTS

Chain of BLM642-1290 C1063N (P54132 642-1290 C1063N): as the sequence (P54132 642-1290 C1055N/C1063N) above, with N414C counted along it
Chain of BLM642-1290 zinc-demetalated (WTzn-) (P54132 642-1290): as the sequence (P54132 642-1290 C1055N/C1063N) above, with N414C, N422C counted along it
Chain of BLM642-1290 WT (P54132 642-1290): as the sequence (P54132 642-1290 C1055N/C1063N) above, with N414C, N422C counted along it
Chain of BLM642-1290 C1055N (P54132 642-1290 C1055N): as the sequence (P54132 642-1290 C1055N/C1063N) above, with N422C counted along it

B1: F21 G4 DNA (structured_DNA)
DNA: GGGTTAGGGTTAGGGTTAGGG
Consider B1, for which the values for the Kd (in data set [1]; in the data set with BLM642-1290 C1063N; with BLM642-1290 WT) were 4.85 nM, 1990 nM and 4.57 nM, respectively.

B2: A/B partial duplex (23mer duplex with ss tails), fluorescent (dsDNA)
DNA 1: GCACTGGCCGTCGTTTTACGGTCGTGACTGGGAAAACCCTGGCG
DNA 2: TTTTTTTTTTTTTTTTTTTTTTAGCCGTAAAACGACGGCCAGTGC
B2: the results for the Kd (in data set [2]; in the data set with BLM642-1290 C1055N) were 209 ± 3.5 nM and 56 ± 1.8 nM, respectively.

In general, Kd refers to the constant that tells how readily two partners part at equilibrium. Low values mean higher affinity, high ones lower affinity.

The values are drawn from article PMC1142346.
